Reference: the domain aggregation screens of Martell et al. (2025)

Test: soluble fraction after stress (log2 fold change); higher = more stays soluble; pooled small domains, quantitative proteomics
Details: stress: pH 4
Outline: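 Values are on a log2 scale, where higher means more of the domain stayed soluble after pH 4 stress. They are fold changes in the soluble amount of each domain from pooled custom libraries, measured by high-throughput quantitative proteomics. The fold change is taken to reflect aggregation propensity.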
With “HMKLARGEFEIMAKFIKEISGISLEQNKTYLIESRLSDLAESEGVKTFSDFFFKAKFNKILKEKIIDAI” the “soluble fraction (log2)” value was -0.957. For “HMGSYANAWQLAEHAAKDMLGEVIYLLDGKEVHAGILETMSAESIKTASAENVDGKVVIRLVSK”, the “soluble fraction (log2)” value was -0.371. In the case of “HMDTIGSKVLAFLAGNLLDPTPFNYRFGYLYLNRTSKVIVEETDTYIDSGMRMTQEAVAEIMQKFAQ”, the “soluble fraction (log2)” value is reported as -2.74. With “HMAVELPLETTLDIVRKYARNQEVDRRAERVEAVSAEALQTLAPRGTKLASEIVEQAKTQVLEELA” the “soluble fraction (log2)” value was -0.0679. For “HMSGTYIVTVQANTLDIYKSMTSNDTIGKANKGDVFQILEDMGGGYAKVSYNDVEGYISIKDGDTSIDEM”, the “soluble fraction (log2)” value was -1.29. With “HMARYSMLEEQLLQLINKHGTMSTPKLVEATGAPRSTVTYQLRKLLESGTIERTQPARSPKQSYRIKS” the “soluble fraction (log2)” value was 0.0957. In the case of “HMSVDVEGNQRIPTEQVLSELRDVGVSFGKRVSGLNADTIRNQMIINNDEIAWLGVNVRGSRVYVEITERI”, the “soluble fraction (log2)” value is reported as -0.0219. With “HMDGQPLSERQQEILRWVAEGLSNREIGERLNITPNTVRDHLSEVMRRLEVSNRTSAVSTAFHLGLLP” the “soluble fraction (log2)” value was -0.178. For “HMTDFNTFSDAIIAAVGSRASGLKVVDNAVSVMVDVSGLNEDQRVEIEADVRAAAEHAGAQSVRIMLT”, the “soluble fraction (log2)” value was -0.5. In the case of “HMLDGFEVGMTVMRKPGTETGFTGWPPFADKDEFPVIERIDTSDSTLLLRFNDTSWWINASLVEPSDV”, the “soluble fraction (log2)” value is reported as -0.729. With “HMGGVSTDKPLNWDADGTSKLTQEQIDYLRSTYDLSDMSKQDYYDLMADLTNMNAISIKDVISQYVK” the “soluble fraction (log2)” value was -0.462. With “HMFKITNTLNKTAEVYLTIPENKKGKGKIMISVNGAFHELEAMTENDKIQSGAVVKVVRIENDNILIVET” the “soluble fraction (log2)” value was -1.96. In the case of “HMKRITKKQLSQQLEQFFSSQPGKKLTLKDIFRALHLDTHPLKMLAMDIMEEMAWDDFITKKGENAYQLNT”, the “soluble fraction (log2)” value is reported as -0.725. In the case of “HMLDSDARRRGLIEYLSLNGYATMRQLAGEFDVSINTIQRDITYLARYYPLETAYGRYGGGVYFEQNWQ”, the “soluble fraction (log2)” value is reported as -1.04. With “HMAVPAALVQAWLELSRRMVAGTQDVGERFAEEARKMHYGETEDRGIRGQATLTEVRDLLDEGIEVLPLLL” the “soluble fraction (log2)” value was -0.725. In the case of “HMLGDIYISIPRAKLQAEEYGHSFKRELAFLAVHGFYHLLGYDHQTKEEEEVMFGKQEEVLAEFDIKR”, the “soluble fraction (log2)” value is reported as -0.245. In the case of “HMVIANADVRAKFSKGKDSFVKYYFKEKVLKDGFTEEVKNNIVQALFYLQIVTRIDGESGVLIIDY”, the “soluble fraction (log2)” value is reported as 0.187. With “HMSALAQDGDLVQLQGAGYKSHILRLKAGEVLQTHRGVIQHDAVIGQPWGARLQSHTGSPFYLFQPGLADL” the “soluble fraction (log2)” value was -0.187. For “HMSSEDTQSRDRARKELSNEMSRIMKRYGLDYQPRDNADDIMNRLKAAGADENTLAYVQEKLK”, the “soluble fraction (log2)” value was 0.0559. For “HMNRGITVIVNNEEIKMKEKAQYVVVDIFDYIDFDLTVPKGSINITLNGENTPYTASIKDGDVIEVFW”, the “soluble fraction (log2)” value was -1.56. For “HMKERLLDPYKDFIVNYLQKYPYTPAAVMHDKLKESYPDFPKVDPKTIYNFVMLLRRDFNIPKV”, the “soluble fraction (log2)” value was -0.406. For “HMVDLAPTEEIIKNLPNNSRSLLIPTLQKIQNAYRYLPSPAMELLSEFLNVTRAEIYGVISFYPSLL”, the “soluble fraction (log2)” value was 0.129. For “HMNMANFARIRLILELHDRGMSQDEISRSRHMSRSTITTVLRTARKKGITYAGIRKLDDAALQKLFFPDR”, the “soluble fraction (log2)” value was 0.22. For “HMTVDTSELEEMIDDLIKEHPNEWERYSSGEKKVQGFFVGQVMKATSGQADGKAINQILSKRVKS”, the “soluble fraction (log2)” value was 0.000391. For “HMNPKTELMVYLKKRDEWVASQILSDVLQVSTRTIRKFVKEINMDYQTENVILSSSKGYKLNQNLLSSL”, the “soluble fraction (log2)” value was -0.281. With “HMKFNLWLSEKLKKLGLTQRKLAEQAGVSPATVSRWLSGEFEPDLTNLRKINQVLGVPERELFLQLGL” the “soluble fraction (log2)” value was -0.0282. In the case of “HMKRKAIDQSWQPDKEAIEILSKAGVNEEFIKEEIPEFILYWSEKGEESDTWNSKFIAQVRRQWAKTQH”, the “soluble fraction (log2)” value is reported as 0.248. For “HMNTVAKELATQATQAKKRAFLDAYAETGIIKRAAEIAGIERKSHYLWLEKDPEYVEAFKSAGEQ”, the “soluble fraction (log2)” value was -0.0116. For “HMSAEVSEIEIQRIISYYRNQNGVPDKYNEIFDRIAAQYTDEQLKVISNFLPSDVKQYLSFNNEKYKSLG”, the “soluble fraction (log2)” value was -0.955. For “HMKGVTVDGDNITVDGEKQTLISVNKNLDGDVVSYTYRTADGKLRTSRNVEVAQEINKQQLLKSIDAQ”, the “soluble fraction (log2)” value was 0.0219. For “HMATEWLSSKEAAQRLGVSAATLYAYVSRGLLRSEGSSGQRERRYRADDVAQLRRRREVGRKAESIAASTL”, the “soluble fraction (log2)” value was 0.142. For “HMQEEMIRGDIKLNTVMQTVHLAVGTETERNWQPVETTAKEFELLKLLMENPGVTLKKEYLFHMLI”, the “soluble fraction (log2)” value was -0.654. With “HMQIAEAESLGQRLLQQSINNIVGRDEAITEERLNRVLSQYSLTGRDELMAQIGLGNRNSSLVAKAMYDI” the “soluble fraction (log2)” value was -0.35. With “HMTGGLLVHVAGAVGAPGVVSLPEGARVVDAIEAAGGAREDADTDQLNLARPVVDGEQVRVPVVGEVLE” the “soluble fraction (log2)” value was 0.22. With “HMATKEQIKRIYGLGAGLGIVGKDKDDMLHELIFSITGKDSVKQLDDSEFKAVQAELINRMKLA” the “soluble fraction (log2)” value was -0.111. With “HMFLSQQDINRANAASVTDMGDIIRRTFERNAAEINGLELSDAEKKDAVKQMATLATTALKTAAGAVNPY” the “soluble fraction (log2)” value was 0.152. In the case of “HMTLGENLQNLRKEAGLSQEQVAQQLFVSRQTVSKWENNLAEPGVENLKALARLYGVTLDRLVGM”, the “soluble fraction (log2)” value is reported as -0.323. With “HMNDVHELPYSSFIEMVERGHVISVTVKHINIEFESTKNENYRTIAPQAMTPPYLELLLKNKDSVKVTFLP” the “soluble fraction (log2)” value was -0.516.
